From patent US11649460B2, “DNA aptamers, method for inhibiting human galectin-1 and method of treating a mammal in need thereof” (priority 2020, dated 2023)

Experiments:
[1] = test system: MCF-7 human breast adenocarcinoma cell line; assay: SRB cell proliferation (cytotoxicity) assay, MCF-7
Description: (§1) The XLSTAT software was used to determine the IC50, TGI and LC50 values using the four-parameter logistic curve equation.

[2] = test system: DU-145 human prostate carcinoma cell line; assay: SRB cell proliferation (cytotoxicity) assay, DU-145
Description: as §1

[3] = test system: A-375 human malignant melanoma; assay: SRB cell proliferation (cytotoxicity) assay, A-375
Description: as §1

[4] = test system: HT-29 human colorectal adenocarcinoma; assay: SRB cell proliferation (cytotoxicity) assay, HT-29
Description: as §1

[5] = test system: HCT 116 human colorectal carcinoma; assay: SRB cell proliferation (cytotoxicity) assay, HCT 116
Description: as §1

[6] = test system: SK-BR-3 human breast adenocarcinoma; assay: SRB cell proliferation (cytotoxicity) assay, SK-BR-3
Description: as §1

[7] = test system: OVCAR-3 human ovarian adenocarcinoma cell line; assay: SRB cell proliferation (cytotoxicity) assay, OVCAR-3
Description: as §1

[8] = test system: NHF human foreskin skin fibroblasts; assay: in vitro
Description: as §1

[9] = target: T1, native human galectin-1 (hGal1) (Homo sapiens, UniProt P09382); assay: Thermofluor thermal shift assay (TSA), native galectin-1; type: binding; details: 5 μM protein
T1 construct: 42; made in house; host or cells: E. coli strain M-15
T1 sequence (P09382 2-135): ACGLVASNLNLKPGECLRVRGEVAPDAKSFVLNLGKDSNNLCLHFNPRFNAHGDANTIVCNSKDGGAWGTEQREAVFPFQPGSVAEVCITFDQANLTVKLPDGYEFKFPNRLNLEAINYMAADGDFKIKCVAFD
Procedure: In an attempt to screen among the selected aptamers that better interact with hGal1, differential scanning fluorimetry (Termofluor) was used to characterize their binding to its target. Among all the selected aptamers, SEQ ID NO.: 4 seemed to have a more intense effect on hGal1 thermoshift and so was chosen for further analysis. The selected aptamer had its interaction evaluated with native and alkylated galectin-1. […] The respective thermal displacements were evaluated as a function of an increasing concentration of SEQ ID NO.: 4 (FIG. 1).
Thermofluor experiments were performed on an Mx3005 RT-PCR (Agilent Technologies) using the SYPRO® Orange dye (492/610 nm) (Invitrogen) as fluorescent probe. The purified (native and alkylated) protein samples were incubated for 30 min with increasing concentration of the molecules of interest, centrifuged, and submitted to the thermal denaturation assay, totalizing four distinct experiments. In a 96-well plate (Agilent Technologies) 20 μl of the reaction containing 5 μM of each protein in buffer PBS 1× and 5× SYPRO® Orange were heated from 25° C. to 95° C. at a rate of 1° C./min. The experimental result was processed as in the protocol previously described and the melting temperature was obtained using GraphPad Prism software (www.graphpad.com).

[10] = target: T2, hGal1-induced hemagglutination of red blood cells (Homo sapiens, UniProt P09382); assay: Hemagglutination inhibition assay, native hGal1; type: cell-based; details: native Gal1 5 μM
T2 construct: 42; made in house; host or cells: E. coli strain M-15
T2 sequence (P09382 2-135): as above
Procedure: Hemagglutination Inhibition Assay
(§2) Hemagglutination assay was adopted to assess the capacity of SEQ ID NO.: 4 in inhibiting the lectin cross-linking aggregation of red blood cells (RBC), as previously described. Briefly, using a 96-well microplates appropriate amounts of 5 μM hGal1 were blended with 50 μL of aptamer in an increasing concentrations manner (0-40 μM) in PBS 1× buffer (pH 7.4). Following, 50 μL of 3% purified type B+ RBC in PBS. After 2 h of room temperature incubation, the plate was photographed and the hemagglutination area was estimated by area calculator Sketchandcalc™ and the results were expressed as relative agglutination.

alkylated Gal1 = target: T3, alkylated Gal1 (Homo sapiens, UniProt P09382); assay: Hemagglutination inhibition assay, alkylated Gal1; type: cell-based; details: alkylated Gal1 5 μM
T3 construct: 42; made in house; host or cells: E. coli strain M-15
T3 sequence (P09382 2-135): as above
Procedure: FIG. 15 illustrates the hemagglutination test with constant protein concentration at 5 μM and titration of aptamers SEQ ID NO.: 4 and SEQ ID NO.: 9. (a) Titration with aptamer 4. The hemagglutination of native Gal1 was inhibited from the concentration of 10 μM of this compound.
as §2
It was observed that treating hGal-1 with Iodoacetamide, which covalently binds the acetamide group in all solvent accessible cysteines sulfhydryl side chain, abolishes the anti-hemagglutinating activity of the aptamer. According to the proposed binding mode, this happens because Cysteines 2, 88 and 130 interact directly with the aptamer and adding the acetamide group to their side chains would disrupt specific aptamer-protein interactions (FIG. 13C).

B1: AGCTGACACAGCAGGTTGGTGCCCAAAAGAGCCAATCCACGACGACACCCCAAAAACCATATCACGAATACCCGAGTCGAGCAATCTCGAAAT (nucleic acid)
DNA: AGCTGACACAGCAGGTTGGTGCCCAAAAGAGCCAATCCACGACGACACCCCAAAAACCATATCACGAATACCCGAGTCGAGCAATCTCGAAAT
modifications: chemistry not given here
[1]; 0.781 µM
  Relative viability (%) of test items: 103.8%
[1]; 1.562 µM
  Relative viability (%) of test items: 95.5%
[1]; 3.125 µM
  Relative viability (%) of test items: 97.8%
[1]; 6.25 µM
  Relative viability (%) of test items: 84.8%
[1]; 12.5 µM
  Relative viability (%) of test items: 73.6%
[1]; 25 µM
  Relative viability (%) of test items: 55.1%
[1]; 50 µM
  Relative viability (%) of test items: 37.5%
[1]; 100 µM
  Relative viability (%) of test items: −19.5%
[1]; MCF-7
  TGI: Concentration for total inhibition of cell growth: 80.767 µM
[1]; read-out: IC50: Concentration to inhibit 50% of cell growth, MCF-7
  IC50: 32 µM
[1]; read-out: LC50: Concentration for 50% cell death, MCF-7
  CC50: > 100 µM
[2]; 0.781 µM
  Relative viability (%) of test items: 106.1%
[2]; 1.562 µM
  Relative viability (%) of test items: 92.3%
[2]; 3.125 µM
  Relative viability (%) of test items: 106.4%
[2]; 6.25 µM
  Relative viability (%) of test items: 103.6%
[2]; 12.5 µM
  Relative viability (%) of test items: 98.7%
[2]; 25 µM
  Relative viability (%) of test items: 82.5%
[2]; 50 µM
  Relative viability (%) of test items: 68.0%
[2]; 100 µM
  Relative viability (%) of test items: 36.6%
[2]; DU-145
  TGI: Concentration for total inhibition of cell growth: >100 µM
[2]; read-out: IC50: Concentration to inhibit 50% of cell growth, DU-145
  IC50: 74 µM
[3]; 0.781 µM
  Relative cell viability (%) of test items: 121.2%
[3]; 1.562 µM
  Relative cell viability (%) of test items: 107.1%
[3]; 3.125 µM
  Relative cell viability (%) of test items: 107.0%
[3]; 6.25 µM
  Relative cell viability (%) of test items: 114.0%
[3]; 12.5 µM
  Relative cell viability (%) of test items: 97.7%
[3]; 25 µM
  Relative cell viability (%) of test items: 92.5%
[3]; 50 µM
  Relative cell viability (%) of test items: 70.6%
[3]; 100 µM
  Relative cell viability (%) of test items: −19.4%
[3]; A-375
  TGI: Concentration for total inhibition of cell growth: 90.397 µM
[3]; read-out: IC50: Concentration to inhibit 50% of cell growth, A-375
  IC50: 61.1 µM
[3]; read-out: LC50: Concentration for 50% cell death, A-375
  CC50: > 100 µM
[4]; 0.781 µM
  Relative cell viability (%) of test items: 92.0%
[4]; 1.562 µM
  Relative cell viability (%) of test items: 95.9%
[4]; 3.125 µM
  Relative cell viability (%) of test items: 97.2%
[4]; 6.25 µM
  Relative cell viability (%) of test items: 92.5%
[4]; 12.5 µM
  Relative cell viability (%) of test items: 83.1%
[4]; 25 µM
  Relative cell viability (%) of test items: 32.7%
[4]; 50 µM
  Relative cell viability (%) of test items: 14.4%
[4]; 100 µM
  Relative cell viability (%) of test items: 0.2%
[4]; read-out: IC50: Concentration to inhibit 50% of cell growth, HT-29
  IC50: 20.4 µM
[5]; 0.781 µM
  Relative cell viability (%) of test items: 99.9%
[5]; 1.562 µM
  Relative cell viability (%) of test items: 94.6%
[5]; 3.125 µM
  Relative cell viability (%) of test items: 87.9%
[5]; 6.25 µM
  Relative cell viability (%) of test items: 88.9%
[5]; 12.5 µM
  Relative cell viability (%) of test items: 72.2%
[5]; 25 µM
  Relative cell viability (%) of test items: 33.3%
[5]; 50 µM
  Relative cell viability (%) of test items: 11.5%
[5]; 100 µM
  Relative cell viability (%) of test items: −19.5%
[5]; HCT 116
  TGI: Concentration for total inhibition of cell growth: 58.519 µM
[5]; read-out: IC50: Concentration to inhibit 50% of cell growth, HCT 116
  IC50: 20.1 µM
[6]; 0.781 µM
  Relative cell viability (%) of test items: 107.5%
[6]; 1.562 µM
  Relative cell viability (%) of test items: 99.9%
[6]; 3.125 µM
  Relative cell viability (%) of test items: 111.1%
[6]; 6.25 µM
  Relative cell viability (%) of test items: 109.1%
[6]; 12.5 µM
  Relative cell viability (%) of test items: 98.5%
[6]; 25 µM
  Relative cell viability (%) of test items: 48.7%
[6]; 50 µM
  Relative cell viability (%) of test items: 3.1%
[6]; 100 µM
  Relative cell viability (%) of test items: −70.0%
[6]; SK-BR-3
  TGI: Concentration for total inhibition of cell growth: 49.017 µM
[6]; read-out: IC50: Concentration to inhibit 50% of cell growth, SK-BR-3
  IC50: 28.3 µM
[6]; read-out: LC50: Concentration for 50% cell death, SK-BR-3
  CC50: 80.7 µM
[7]; 0.781 µM
  Relative viability (%) of test items: 105.9%
[7]; 1.562 µM
  Relative viability (%) of test items: 99.6%
[7]; 3.125 µM
  Relative viability (%) of test items: 93.9%
[7]; 6.25 µM
  Relative viability (%) of test items: 84.3%
[7]; 12.5 µM
  Relative viability (%) of test items: 50.2%
[7]; 25 µM
  Relative viability (%) of test items: 23.4%
[7]; 50 µM
  Relative viability (%) of test items: 8.1%
[7]; 100 µM
  Relative viability (%) of test items: −62.0%
[7]; OVCAR-3
  TGI: Concentration for total inhibition of cell growth: 45.952 µM
[7]; read-out: IC50: Concentration to inhibit 50% of cell growth, OVCAR-3
  IC50: 16.1 µM
[7]; read-out: LC50: Concentration for 50% cell death, OVCAR-3
  CC50: 91.4 µM
[8]; 0.781 µM
  Relative viability (%) of test items: 104.0%
[8]; 1.562 µM
  Relative viability (%) of test items: 96.2%
[8]; 3.125 µM
  Relative viability (%) of test items: 95.7%
[8]; 6.25 µM
  Relative viability (%) of test items: 92.7%
[8]; 12.5 µM
  Relative viability (%) of test items: 114.0%
[8]; 25 µM
  Relative viability (%) of test items: 84.6%
[8]; 50 µM
  Relative viability (%) of test items: 44.6%
[8]; 100 µM
  Relative viability (%) of test items: −12.8%
[8]; NHF
  TGI: Concentration for total inhibition of cell growth: 83.697 µM
[8]; read-out: IC50: Concentration to inhibit 50% of cell growth, NHF
  IC50: 46.9 µM
[9]
  variation of denaturation temperature (Tm) of native hGal1: greater variation
[10]
  concentration from which hemagglutination was inhibited: 10 µM
  inhibitory effect on galectin-induced hemagglutination: better effect
Alkylated Gal1
  effect on hemagglutination by alkylated Gal1: no effect
